Experimental data: US20260234246A1 (CAEDO ONCOLOGY, published 2026)

Tests used:
[1] = target: T1, human CD47 on the surface of cells (human cancer cell lines and human red blood cells) (human, UniProt Q08722 19-323); test: flow cytometry, FITC-conjugated antibody on CCRF-CEM cells
T1 construct: Native CD47 of human cell lines (Jurkat, Reh, CCRF-CEM and others) and of RBCs from healthy donors; also called cell-surface CD47
Description: (§1) PBS-washed cancer cell lines or RBCs were pelleted and washed with washing buffer (3% (w/v) BSA, 1% (w/v) sodium azide in PBS) and incubated with Human BD Fc Block for 10 minutes before being plated into a round-bottom 96 well plate (2.5×10⁵ cells per well). Antibodies were conjugated with FITC using the FITC conjugation kit from Abcam. […] All samples were prepared in duplicates. Cells were washed three times and resuspended in cold washing buffer. Cells were kept on ice until analyses by flow cytometry. Excitation wavelength FITC: 488 nm, detection: 530/30 nm.
(§2) 4-parameter curve fitting was performed using GraphPad Prism

[2] = target: T2, recombinant CD47 (recCD47), SinoBiological 12283-H27H-B, biotinylated (human, UniProt Q08722 19-139, biotinylated (AVI-tag)); test: SPR Biacore S200, multi-cycle (top 50 nM), recCD47 on SA chip 1330 RU, 1:1 model
T2 construct: Bought protein, 17 kDa; At 17 kDa it can only be a part of it; also called recombinant biotinylated CD47; not shown: C-terminal His- and AVI-tag

[3] = target: T2, recombinant CD47 (recCD47), …; test: SPR Biacore S200, single-cycle (top 80 nM), recCD47 on SA chip 1330 RU, 1:1 model
[4] = target: T2, recombinant CD47 (recCD47), …; test: SPR Biacore S200, single-cycle, recCD47 on SA chip 700 RU, antibody as analyte, 25 C, 1:1 model
[5] = target: T2, recombinant CD47 (recCD47), …; test: SPR Biacore S200, multi-cycle (top 50 nM), recCD47 on SA chip 1330 RU, antibody as analyte, 1:1 model
[6] = target: T2, recombinant CD47 (recCD47), …; test: SPR Biacore S200, single-cycle (top 80 nM), recCD47 on SA chip 1330 RU, antibody as analyte, 1:1 model
[7] = target: T2, recombinant CD47 (recCD47), …; test: SPR Biacore S200, multi-cycle (top 50 nM), recCD47 on SA chip 1330 RU, 1:1 model; * off-rate difficult to determine
[8] = target: T2, recombinant CD47 (recCD47), …; test: SPR Biacore S200, single-cycle (top 80 nM), recCD47 on SA chip 1330 RU, 1:1 model; * off-rate difficult to determine
[9] = target: T2, recombinant CD47 (recCD47), …; test: SPR Biacore S200, single-cycle, recCD47 on SA chip 100 RU, fragment as analyte, 25 C, 1:1 model
[10] = target: T1, human CD47 on the surface of cells …; test: flow cytometry on Jurkat cells, goat anti-human FITC, MFI against log µg/ml
Description: PBS-washed cancer cell lines or RBCs were pelleted and washed with washing buffer (3% (w/v) BSA, 1% (w/v) sodium azide in DPBS) and incubated with Human BD Fc Block for 10 minutes before being plated into a round-bottom 96 well plate (2.5×10⁵ cells per well). […] All samples were prepared in duplicates. The cells were washed twice in washing buffer, followed by 30 minutes incubation with Goat anti-human FITC staining buffer (Goat anti-human FITC diluted 1:200 in washing buffer) on ice, protected from light with slight agitation. The cells were analyzed by flow cytometry after three washes in washing buffer. Excitation wavelength FITC: 488 nm, detection: 530/30 nm.

[11] = target: T2, recombinant CD47 (recCD47), …; test: SPR Biacore S200, single-cycle, recCD47 on SA chip 100 RU, antibody as analyte, 25 C, 1:1 model;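 note: antibodies were injected over the captured CD47 at a series of concentrations, and KD was derived as the dissociation rate constant divided by the association rate constant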
Description: The binding affinity of the huCO-mAbs to CD47 was determined via surface plasmon resonance (SPR) on a Biacore S200 system. Recombinant biotinylated CD47 was immobilized on an SA streptavidin chip to a level of 100 RU (in 10 mM NaAc pH5.0). The huCO-mAbs reacted with recombinant CD47 at gradient concentrations.
A 1:1 binding model was used to fit the data. […] The affinity constant KD is calculated as kd/kₐ.

[12] = target: T1, human CD47 on the surface of cells …; test: flow cytometry, FITC-conjugated antibody on Reh cells
Description: as §1, §2

[13] = target: T1, human CD47 on the surface of cells …; test: flow cytometry, FITC-conjugated antibody on human RBCs
Description: as §1, §2

[14] = target: T1, human CD47 on the surface of cells …; test: flow cytometry, FITC-conjugated antibody on Jurkat cells
Description: as §1, §2

[15] = target: T2, recombinant CD47 (recCD47), …; test: SPR Biacore S200, single-cycle (top 1 uM), recCD47 on SA chip 1330 RU, antibody as analyte, 1:1 model
[16] = target: T2, recombinant CD47 (recCD47), …; test: SPR Biacore S200, multi-cycle (top 50 nM), run 1, recCD47 on SA chip 1330 RU, antibody as analyte, 1:1 model
[17] = target: T2, recombinant CD47 (recCD47), …; test: SPR Biacore S200, multi-cycle (top 50 nM), run 2, recCD47 on SA chip 1330 RU, antibody as analyte, 1:1 model

T2 sequence (Q08722 19-139 limits assumed): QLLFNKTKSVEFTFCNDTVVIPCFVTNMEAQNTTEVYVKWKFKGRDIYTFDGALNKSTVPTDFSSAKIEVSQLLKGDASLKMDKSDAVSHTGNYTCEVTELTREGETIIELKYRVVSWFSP
T1 sequence (Q08722 19-323 limits assumed): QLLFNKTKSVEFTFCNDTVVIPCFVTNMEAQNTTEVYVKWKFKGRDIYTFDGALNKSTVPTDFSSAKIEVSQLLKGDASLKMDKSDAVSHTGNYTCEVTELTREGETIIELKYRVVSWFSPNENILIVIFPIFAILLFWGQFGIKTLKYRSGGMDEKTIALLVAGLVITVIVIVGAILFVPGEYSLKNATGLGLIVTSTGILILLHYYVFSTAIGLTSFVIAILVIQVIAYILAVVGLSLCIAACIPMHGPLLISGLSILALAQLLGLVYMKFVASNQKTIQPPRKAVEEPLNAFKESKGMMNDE

B1: CO-1.1 antibody (chimeric CO-1 IgG1) (antibody)
heavy: not shown
light: DVVMTQTPLSLPVSLGDQASISCRSSQSLVHSNGKTYLHWYLQKPGQSPKLLIYRVSNRFSGVPDRFSGSGSGTDFTLKISRIEAEDLGVYFCSQSTHVPFTFGSGTKLEIKRTVAAPSVFIFPPSDEQLKSGTASVVCLLNNFYPREAKVQWKVDNALQSGNSQESVTEQDSKDSTYSLSSTLTLSKADYEKHKVYACEVTHQGLSSPVTKSFNRGEC
notes: Chimeric: mouse variable domains of mCO-1 with human IgG1 constant regions; also called SC-CO-1; MC-CO-1
Question: How did the EC50 [1] turn out when B1 was run?
Answer: The EC50 was 0.0283 ng/mL.

Question: What about the Kd [2] of the same binder?
Answer: Its Kd is under 1 pM.

Question: And the Kd [3]?
Answer: The Kd was under 1 pM.

Question: What about the koff [4] of the same binder?
Answer: The koff was 4.7e-06 s⁻¹.

Question: What about the kon [4] of the same binder?
Answer: The kon was 1.4e+06 M⁻¹ s⁻¹.

Question: What about the kon [5] of the same binder?
Answer: Its kon is 900000 M⁻¹ s⁻¹.

Question: And the kon [6]?
Answer: The kon was 500000 M⁻¹ s⁻¹.

Question: And the Kd [7]?
Answer: The Kd was 0.04 pM.

Question: What about the Kd [8] of the same binder?
Answer: Its Kd is under 1 pM.

B2: CO-1 F(ab')2 antibody (other)
heavy: QIQLVQSGPELKKPGETVKISCKASGYTFTNFGMHWVKQAPGKGLKWMGWINTYTGEPTYTDDFKGRFAFSLETSASTAYLQINSLKNEDTATFFCTRGDYRYGDSWGQGTTLTVSSASTKGPSVFPLAPSSKSTSGGTAALGCLVKDYFPEPVTVSWNSGALTSGVHTFPAVLQSSGLYSLSSVVTVPSSSLGTQTYICNVNHKPSNTKVDKKVEPKSCDKTHTCPPCPAPELLG
light: DVVMTQTPLSLPVSLGDQASISCRSSQSLVHSNGKTYLHWYLQKPGQSPKLLIYRVSNRFSGVPDRFSGSGSGTDFTLKISRIEAEDLGVYFCSQSTHVPFTFGSGTKLEIKRTVAAPSVFIFPPSDEQLKSGTASVVCLLNNFYPREAKVQWKVDNALQSGNSQESVTEQDSKDSTYSLSSTLTLSKADYEKHKVYACEVTHQGLSSPVTKSFNRGEC
notes: F(ab')2 fragment, divalent for CD47, based on mCO-1; also called CO F(ab')2; CO-F(ab')2
Question: B2 was tested. Which koff [9] did it give?
Answer: The koff was 4.5e-05 s⁻¹.

Question: And the kon [9]?
Answer: The kon was 6.9e+06 M⁻¹ s⁻¹.

B3: CO201 humanized IgG4 anti-CD47 antibody (antibody, V domains shown)
VH: QVQLVQSGSELKKPGASVKVSCKASGYTFTNFGMHWVRQAPGQGLEWMGWINTYTGEPTYTDDFKGRFVFSLDTSVSTAYLQISSLKAEDTAVYYCARGDYRYGDSWGQGTTVTVSS
VL: DIVMTQTPLSLSVTPGQPASISCRSSQSLVHSNGKTYLHWYLQKPGQPPQLLIYRVSNRFSGVPDRFSGSGSGTDFTLKISRVEAEDVGVYYCSQSTHVPFTFGQGTKLEIK
notes: also called huCO-mAb
Question: Which “EC50 (read off the curve)” value [10] does the source give for B3 here?
Answer: Its value is about 70 ng/mL.

Question: And the Kd [11]?
Answer: The Kd was 49.9 pM.

Question: What about the koff [11] of the same binder?
Answer: The koff was 0.00043 s⁻¹.

Question: And the kon [11]?
Answer: Its kon is 8.7e+06 M⁻¹ s⁻¹.

B4: CO205 humanized IgG4 anti-CD47 antibody (antibody, V domains shown)
VH: QVQLVQSGSELKKPGASVKVSCKASGYTFTNFGMHWVRQAPGQGLEWMGWINTYTGEPTYTDDFKGRFVFSLDTSVSTAYLQISSLKAEDTAVYYCARGDYRYGDSWGQGTTVTVSS
VL: DIVMTQTPLSLSVTPGQPASISCRSSQSLVHSNGKTYLHWYLQKPGQSPQLLIYRVSNRFSGVPDRFSGSGSGTDFTLKISRVEAEDVGVYYCSQSTHVPFTFGQGTKLEIK
notes: also called huCO-mAb
Question: For B4, which “EC50 (read off the curve)” value [10] is on record?
Answer: The value was about 80 ng/mL.

Question: What about the Kd [11] of the same binder?
Answer: The Kd was 56 pM.

Question: What about the koff [11] of the same binder?
Answer: Its koff is 0.00046 s⁻¹.

Question: And the kon [11]?
Answer: Its kon is 8.2e+06 M⁻¹ s⁻¹.

B5: AO-A IgG1 (AO-176 candidate A) (antibody, V domains shown)
VH: QVQLVQSGAEVKKPGASVKVSCKASGYTFTNYWIHWVRQAPGQGLEWMGYTDPRTDYTEYNQKFKDRVTMTRDTSTSTVYMELSSLRSEDTAVYYCARGGRVGLGYWGQGTLVTVSS
VL: DIVMTQSPDSLAVSLGERATINCRSSQNIVQSNGNTYLEWYQQKPGQPPKLLIYKVFHRFSGVPDRFSGSGSGTDFTLTISSLQAEDVAVYYCFQGSHVPYTFGQGTKLEIKR
notes: Comparator from WO2020/198370; also called AO-A.1; AO-176 A
Question: For B5, which EC50 [12] is on record?
Answer: The EC50 was 340 ng/mL.

Question: What about the EC50 [13] of the same binder?
Answer: The EC50 was 2420 ng/mL.

Question: What about the EC50 [14] of the same binder?
Answer: The EC50 was 30.3 ng/mL.

Question: What about the EC50 [1] of the same binder?
Answer: Its EC50 is 0.285 ng/mL.

Question: What about the Kd [15] of the same binder?
Answer: The Kd was 1000 pM.

Question: What about the koff [15] of the same binder?
Answer: The koff was 0.0006 s⁻¹.

Question: And the kon [15]?
Answer: The kon was 500000 M⁻¹ s⁻¹.

Question: What about the Kd [6] of the same binder?
Answer: The Kd was 1000 pM.

Question: What about the koff [6] of the same binder?
Answer: Its koff is 0.0008 s⁻¹.

Question: And the kon [6]?
Answer: The kon was 800000 M⁻¹ s⁻¹.

Question: And the Kd [16]?
Answer: Its Kd is 1000 pM.

Question: What about the koff [16] of the same binder?
Answer: Its koff is 0.001 s⁻¹.

Question: What about the kon [16] of the same binder?
Answer: Its kon is 1.5e+06 M⁻¹ s⁻¹.

Question: And the Kd [17]?
Answer: The Kd was 1000 pM.

Question: And the koff [17]?
Answer: Its koff is 0.002 s⁻¹.

Question: And the kon [17]?
Answer: The kon was 1.8e+06 M⁻¹ s⁻¹.
